Molecular target: Drosophila CstF64 (Drosophila (endogenous in Kc cells)) (UniProt Q86NL1)
Test: co-IP

A percent precipitated by the anti-CstF64 antibody of over 10% was found for “Drosophila Lsm11 (endogenous) (natural protein)” in this work.
